Laboratory results taken from PMC3336205, “The generation and evaluation of two panels of epitope-matched mouse IgG1, IgG2a, IgG2b and IgG3 antibodies specific for Plasmodium falciparum and Plasmodium yoelii merozoite surface protein 1–19 (MSP1_(19))” (Experimental Parasitology, 2012).

B1: mouse IgG1-C1 (PfMSP1_(19)-specific recombinant mouse IgG1) (antibody, V domains shown)
VH: EVQLVQSGPEVKKPGASVKVSCKTSGYSFTSYDINWVRQAPGQGLEWMGRISPYNGKTDYTQTLRGRVTMSTDTSTTTVYLELRSLKSDDTAVYYCAREGVWFAELLSWGEGTLVTVSS
VL: DIVMTQTPGTLSLSPGERATLSCRASQSVSGNYLAWYQQKPGQAPRLLIHGSSDRAAGTPDRFSGRGSGTDFTLTISRLEPEDFAVYYCQQYCSSPFTFGPGTKVEIK
notes: VH of C1 (anti-PfMSP1_19), as the VH of m7; mouse IgG1 heavy-chain constant region, amplified from BALB/c genomic DNA; VL of C1, as the VL of m7; mouse kappa light chain constant region, amplified from BALB/c genomic DNA; Plasmids pVH-C1-mIgG1 and pVL-C1-mouse kappa; also called mIgG1-C1; murine IgG1-C1; source: HEK-293T, stably transfected; culture supernatant, and purified (protein G-Sepharose)
B2: mouse IgG2a-C1 (PfMSP1_(19)-specific recombinant mouse IgG2a) (antibody, V domains shown)
VH: EVQLVQSGPEVKKPGASVKVSCKTSGYSFTSYDINWVRQAPGQGLEWMGRISPYNGKTDYTQTLRGRVTMSTDTSTTTVYLELRSLKSDDTAVYYCAREGVWFAELLSWGEGTLVTVSS
VL: DIVMTQTPGTLSLSPGERATLSCRASQSVSGNYLAWYQQKPGQAPRLLIHGSSDRAAGTPDRFSGRGSGTDFTLTISRLEPEDFAVYYCQQYCSSPFTFGPGTKVEIK
notes: VH of C1 (anti-PfMSP1_19), as the VH of m7; mouse IgG2a heavy-chain constant region, amplified from genomic DNA; VL of C1, as the VL of m7; mouse kappa light chain constant region, amplified from BALB/c genomic DNA; Plasmids pVH-C1-mIgG2a and pVL-C1-mouse kappa; also called mIgG2a-C1; source: CHO-K1, stably transfected; culture supernatant, and purified (protein G-Sepharose)
B3: mouse IgG2b-C1 (PfMSP1_(19)-specific recombinant mouse IgG2b) (antibody, V domains shown)
VH: EVQLVQSGPEVKKPGASVKVSCKTSGYSFTSYDINWVRQAPGQGLEWMGRISPYNGKTDYTQTLRGRVTMSTDTSTTTVYLELRSLKSDDTAVYYCAREGVWFAELLSWGEGTLVTVSS
VL: DIVMTQTPGTLSLSPGERATLSCRASQSVSGNYLAWYQQKPGQAPRLLIHGSSDRAAGTPDRFSGRGSGTDFTLTISRLEPEDFAVYYCQQYCSSPFTFGPGTKVEIK
notes: VH of C1 (anti-PfMSP1_19), as the VH of m7; mouse IgG2b heavy-chain constant region, amplified from genomic DNA; VL of C1, as the VL of m7; mouse kappa light chain constant region, amplified from BALB/c genomic DNA; Plasmids pVH-C1-mIgG2b and pVL-C1-mouse kappa; also called mIgG2b-C1; source: CHO-K1, stably transfected; culture supernatant, and purified (protein G-Sepharose)
B4: mouse IgG3-C1 (PfMSP1_(19)-specific recombinant mouse IgG3) (antibody, V domains shown)
VH: EVQLVQSGPEVKKPGASVKVSCKTSGYSFTSYDINWVRQAPGQGLEWMGRISPYNGKTDYTQTLRGRVTMSTDTSTTTVYLELRSLKSDDTAVYYCAREGVWFAELLSWGEGTLVTVSS
VL: DIVMTQTPGTLSLSPGERATLSCRASQSVSGNYLAWYQQKPGQAPRLLIHGSSDRAAGTPDRFSGRGSGTDFTLTISRLEPEDFAVYYCQQYCSSPFTFGPGTKVEIK
notes: VH of C1 (anti-PfMSP1_19), as the VH of m7; mouse IgG3 heavy-chain constant region, amplified from genomic DNA; VL of C1, as the VL of m7; mouse kappa light chain constant region, amplified from BALB/c genomic DNA; Plasmids pVH-C1-mIgG3 and pVL-C1-mouse kappa; also called mIgG3-C1; source: CHO-K1, stably transfected; culture supernatant, and purified (protein G-Sepharose)
B5: human IgG1-C1 (JS1), parental human IgG1 antibody (antibody, V domains shown)
VH: EVQLVQSGPEVKKPGASVKVSCKTSGYSFTSYDINWVRQAPGQGLEWMGRISPYNGKTDYTQTLRGRVTMSTDTSTTTVYLELRSLKSDDTAVYYCAREGVWFAELLSWGEGTLVTVSS
VL: DIVMTQTPGTLSLSPGERATLSCRASQSVSGNYLAWYQQKPGQAPRLLIHGSSDRAAGTPDRFSGRGSGTDFTLTISRLEPEDFAVYYCQQYCSSPFTFGPGTKVEIK
notes: VH of C1 (anti-PfMSP1_19); human IgG1 heavy-chain constant region; VL of C1; light-chain constant region of pVKExpress C1; IgG1; also called hIgG1-C1; (h)IgG1-C1
B6: mouse IgG1-B10 (PyMSP1_(19)-specific recombinant mouse IgG1) (antibody, V domains shown)
VH: QVQLQQSGPELVKPGASVKVSCKASGYAFTSYNMYWVKQSHGKSLEWIGYIDPYNGGTSYNQKLKGKATLTVDKSSSTAYIHLNSLTSEDSAVYYCTIHYYGYGGFAYWGQGTTVTSS
VL: DIELTQSTAIMSASPGEKVTMTCSASSSVRYMYWYQQKPGSSPRLLIYDTSKLASGVPVRFSGSGSGTSYSLAISRMEAEDAASYYCQQWSSYPPTLGGGTKLEIK
notes: VH of B10 (anti-PyMSP1_19), from pB10-VH/5; mouse IgG1 heavy-chain constant region, amplified from BALB/c genomic DNA; VL of B10, from pB10-VL/10; mouse kappa light chain constant region, amplified from BALB/c genomic DNA; Plasmids pVH-B10-mIgG1 and pVL-B10-mouse kappa; source: HEK-293T, stably transfected; culture supernatant
B7: mouse IgG2a-B10 (PyMSP1_(19)-specific recombinant mouse IgG2a) (antibody, V domains shown)
VH: QVQLQQSGPELVKPGASVKVSCKASGYAFTSYNMYWVKQSHGKSLEWIGYIDPYNGGTSYNQKLKGKATLTVDKSSSTAYIHLNSLTSEDSAVYYCTIHYYGYGGFAYWGQGTTVTSS
VL: DIELTQSTAIMSASPGEKVTMTCSASSSVRYMYWYQQKPGSSPRLLIYDTSKLASGVPVRFSGSGSGTSYSLAISRMEAEDAASYYCQQWSSYPPTLGGGTKLEIK
notes: VH of B10 (anti-PyMSP1_19), from pB10-VH/5; mouse IgG2a heavy-chain constant region, amplified from genomic DNA; VL of B10, from pB10-VL/10; mouse kappa light chain constant region, amplified from BALB/c genomic DNA; Plasmids pVH-B10-mIgG2a and pVL-B10-mouse kappa; source: CHO-K1, stably transfected; culture supernatant
B8: mouse IgG2b-B10 (PyMSP1_(19)-specific recombinant mouse IgG2b) (antibody, V domains shown)
VH: QVQLQQSGPELVKPGASVKVSCKASGYAFTSYNMYWVKQSHGKSLEWIGYIDPYNGGTSYNQKLKGKATLTVDKSSSTAYIHLNSLTSEDSAVYYCTIHYYGYGGFAYWGQGTTVTSS
VL: DIELTQSTAIMSASPGEKVTMTCSASSSVRYMYWYQQKPGSSPRLLIYDTSKLASGVPVRFSGSGSGTSYSLAISRMEAEDAASYYCQQWSSYPPTLGGGTKLEIK
notes: VH of B10 (anti-PyMSP1_19), from pB10-VH/5; mouse IgG2b heavy-chain constant region, amplified from genomic DNA; VL of B10, from pB10-VL/10; mouse kappa light chain constant region, amplified from BALB/c genomic DNA; Plasmids pVH-B10-mIgG2b and pVL-B10-mouse kappa; source: CHO-K1, stably transfected; culture supernatant
B9: mouse IgG3-B10 (PyMSP1_(19)-specific recombinant mouse IgG3) (antibody, V domains shown)
VH: QVQLQQSGPELVKPGASVKVSCKASGYAFTSYNMYWVKQSHGKSLEWIGYIDPYNGGTSYNQKLKGKATLTVDKSSSTAYIHLNSLTSEDSAVYYCTIHYYGYGGFAYWGQGTTVTSS
VL: DIELTQSTAIMSASPGEKVTMTCSASSSVRYMYWYQQKPGSSPRLLIYDTSKLASGVPVRFSGSGSGTSYSLAISRMEAEDAASYYCQQWSSYPPTLGGGTKLEIK
notes: VH of B10 (anti-PyMSP1_19), from pB10-VH/5; mouse IgG3 heavy-chain constant region, amplified from genomic DNA; VL of B10, from pB10-VL/10; mouse kappa light chain constant region, amplified from BALB/c genomic DNA; Plasmids pVH-B10-mIgG3 and pVL-B10-mouse kappa; source: CHO-K1, stably transfected; culture supernatant

Tests used:
[1] = target: T1, recombinant PfMSP1_(19)-GST (Plasmodium falciparum, strain not …, UniProt P04933); test: SPR; BIAcore X; PfMSP1_19-GST (50 μg/ml) amine-coupled to a CM5 chip; purified IgGs injected at 2, 1, 0.5, 0.25 and 0.125 μM, 50 μL at 10 μL/min; control Ag in flow cell 2; conditions: both partners purified
T1 construct: merozoite surface protein 1 (MSP1), Plasmodium falciparum, C-terminal 19-kDa region (MSP1_19); also called C-terminal 19-kDa region of Plasmodium falciparum merozoite surface protein 1; source: recombinant, purified (Burghaus and Holder, 1994)

[2] = target: T2, recombinant PyMSP1_(19)-GST (Plasmodium yoelii yoelii (strain not …, UniProt P13828)); test: ELISA; five micrograms of recombinant purified antigen (PfMSP1_19-GST or PyMSP1_19-GST) coated; culture supernatant of secreting clones; detected with HRP anti-mouse IgG Fc-specific or anti-mouse kappa light chain secondary antibodies; read at 450 nm; conditions: one partner purified
T2 construct: merozoite surface protein 1 (MSP1), Plasmodium yoelii, C-terminal 19-kDa region (MSP1_19), homologous to PfMSP1_19; also called P. yoelii MSP1_(19); source: recombinant, purified (Lewis, 1989)
T2 sequence (P13828 whole entry, looked up): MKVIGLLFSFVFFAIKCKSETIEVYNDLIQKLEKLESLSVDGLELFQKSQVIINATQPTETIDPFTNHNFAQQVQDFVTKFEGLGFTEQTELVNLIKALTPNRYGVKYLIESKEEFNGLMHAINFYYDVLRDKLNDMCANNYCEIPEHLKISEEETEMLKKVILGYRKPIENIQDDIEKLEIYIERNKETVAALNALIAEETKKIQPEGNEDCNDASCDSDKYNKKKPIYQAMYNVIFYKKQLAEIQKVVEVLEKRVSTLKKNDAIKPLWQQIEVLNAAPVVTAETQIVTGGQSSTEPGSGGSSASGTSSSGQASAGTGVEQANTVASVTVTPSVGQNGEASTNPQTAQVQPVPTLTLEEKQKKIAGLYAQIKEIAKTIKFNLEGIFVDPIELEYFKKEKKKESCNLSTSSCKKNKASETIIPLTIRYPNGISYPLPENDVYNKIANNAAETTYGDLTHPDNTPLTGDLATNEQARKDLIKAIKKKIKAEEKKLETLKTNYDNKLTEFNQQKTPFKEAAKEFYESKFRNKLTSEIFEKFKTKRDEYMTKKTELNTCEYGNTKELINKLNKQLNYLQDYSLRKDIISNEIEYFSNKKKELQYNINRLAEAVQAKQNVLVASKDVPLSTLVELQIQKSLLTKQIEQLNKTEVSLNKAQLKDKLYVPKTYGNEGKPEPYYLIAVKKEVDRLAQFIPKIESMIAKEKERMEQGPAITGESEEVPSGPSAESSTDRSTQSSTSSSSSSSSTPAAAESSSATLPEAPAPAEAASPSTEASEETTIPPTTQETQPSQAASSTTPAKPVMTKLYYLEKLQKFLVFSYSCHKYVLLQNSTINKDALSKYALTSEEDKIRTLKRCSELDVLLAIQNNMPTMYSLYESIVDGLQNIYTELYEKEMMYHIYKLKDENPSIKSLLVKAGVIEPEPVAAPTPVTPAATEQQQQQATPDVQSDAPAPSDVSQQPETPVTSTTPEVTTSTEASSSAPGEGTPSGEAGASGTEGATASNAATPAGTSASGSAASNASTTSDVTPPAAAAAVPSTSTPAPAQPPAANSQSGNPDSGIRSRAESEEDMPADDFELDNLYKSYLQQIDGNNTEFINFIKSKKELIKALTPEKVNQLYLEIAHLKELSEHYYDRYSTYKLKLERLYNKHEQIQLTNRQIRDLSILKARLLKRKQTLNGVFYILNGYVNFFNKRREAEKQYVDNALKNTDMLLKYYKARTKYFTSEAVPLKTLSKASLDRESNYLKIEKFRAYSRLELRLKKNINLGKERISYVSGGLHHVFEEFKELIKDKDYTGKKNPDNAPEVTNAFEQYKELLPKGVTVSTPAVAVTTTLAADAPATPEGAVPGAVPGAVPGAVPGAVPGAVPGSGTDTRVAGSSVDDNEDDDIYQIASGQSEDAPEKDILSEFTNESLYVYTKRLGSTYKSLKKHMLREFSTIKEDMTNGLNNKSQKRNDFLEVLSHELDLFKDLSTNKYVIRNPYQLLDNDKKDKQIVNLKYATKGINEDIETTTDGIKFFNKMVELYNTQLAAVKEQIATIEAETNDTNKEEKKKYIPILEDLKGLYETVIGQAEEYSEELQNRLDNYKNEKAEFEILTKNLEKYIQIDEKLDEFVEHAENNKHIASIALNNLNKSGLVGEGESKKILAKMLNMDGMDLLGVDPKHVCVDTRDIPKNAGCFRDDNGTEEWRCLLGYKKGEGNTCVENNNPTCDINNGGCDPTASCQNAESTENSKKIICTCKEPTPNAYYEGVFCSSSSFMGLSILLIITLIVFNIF

| Binder | Ka [1] [M⁻¹] | Kd [1] [nM] | binding result [2] |
| --- | --- | --- | --- |
| B1 | 4.48e+07 | 23 |  |
| B2 | 3.32e+07 | 30.1 |  |
| B3 | 1.2e+07 | 84.1 |  |
| B4 | 2.33e+07 | 31.1 |  |
| B5 | 3.94e+07 | 23 |  |
| B6 |  |  | binds |
| B7 |  |  | binds |
| B8 |  |  | binds |
| B9 |  |  | binds |
